Laboratory results published in patent US20210122818A1 (BIOUNIVERSA S R L, published 2021).

Target: T1, recombinant BAG3 full-length protein (UniProt O95817 2-575, limits assumed)
T1 construct: mature; also called rBAG3; E. Coli rBAG3
Assay: method for the murine antibody not stated (Example 3, Octet)

T1 sequence (O95817 2-575 limits assumed): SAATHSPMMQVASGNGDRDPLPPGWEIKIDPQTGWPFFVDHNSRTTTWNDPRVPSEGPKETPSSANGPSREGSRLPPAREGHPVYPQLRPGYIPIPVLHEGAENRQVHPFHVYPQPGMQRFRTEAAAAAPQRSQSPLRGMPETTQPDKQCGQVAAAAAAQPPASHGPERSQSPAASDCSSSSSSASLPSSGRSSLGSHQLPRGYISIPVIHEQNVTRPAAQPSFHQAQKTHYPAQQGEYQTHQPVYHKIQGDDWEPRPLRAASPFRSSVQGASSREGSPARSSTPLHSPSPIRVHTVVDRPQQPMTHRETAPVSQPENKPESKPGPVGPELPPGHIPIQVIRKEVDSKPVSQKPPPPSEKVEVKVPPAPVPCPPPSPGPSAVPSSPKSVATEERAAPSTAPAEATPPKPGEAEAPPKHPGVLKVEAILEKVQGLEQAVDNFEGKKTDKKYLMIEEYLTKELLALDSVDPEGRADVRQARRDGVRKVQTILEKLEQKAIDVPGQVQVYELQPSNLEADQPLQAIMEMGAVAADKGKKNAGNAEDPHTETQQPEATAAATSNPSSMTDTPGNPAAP

Kd: 1 pM
B1: AC-2 murine antibody (antibody, V domains shown)
VH: EVQLQQSGAELVKPGASVKLSCTASGFNIKDTYMYWVKQRPEQGLEWIGGVDPANGNTRYDPKFQGKATLTADTSSSTAYLQLSSLTSEDTAVYYCGRDGAMDYWGQGTSVTVSS
VL: DIVMSQSPSSLAVSVGEKVTMSCKSSQSLLYSSNQKNYLAWHQQKPGQSPKLLIYWASTRESGVPDRFTGSGSGTDFTLTISSVKAEDLAIYYCQQYYTYPLTFGAGTKLELK
notes: Murine hybridoma antibody; also called anti-BAG3 mouse antibody (AC2); murine anti-BAG AC-2 antibody
